This is an account of results in US20260274966A1.

The target in this test is CD137 on activated CEMT cells (UniProt Q07011). Put plainly: Flow cytometry on PMA/ionomycin-activated CEMT cells, protein at 0.48 nM, detection anti-human Fc-FITC; lower panel 'Cell binding - CD137'.

As to CET (antibody), the MFI stood at 1.07.
